Columns and labels:
Experiment in all cases: SPR, Fab over captured mutant
[1] = molecular target: T1, hIGF-1R-Fc mutant SD015 (H464E) (human, UniProt P08069 31-933)
T1 construct: not shown: human IgG1 Fc, C-terminal tag
Method: (§1) Surface plasmon resonance (SPR) experiments were performed on a Biacore 3000 instrument set to 25° C. […] The antibody sensorchip surfaces were prepared by injecting each antibody (diluted 100 μg/mL in 10 mM Acetate, pH 4.0) over EDC/NHS-activated sensorchip surfaces according to the standard protocol of the manufacturer. […] Both hIGF-1R-Fc and mIGF-1R-Fc proteins oligomerize due to the incorporation of two separate homodimeric regions (IGF-1R and IgG1-Fc). […] After, completion of the receptor-Fc loading step, flow rates were elevated to 5 μl/min. […] Dissociation was measured for 7 minutes after the antibody injections were complete. Finally, the flow rate was elevated to 30 μL/min and the chip surfaces were regenerated by 2×10 μL injections of 0.1 M glycine, pH 2.

[2] = molecular target: T2, hIGF-1R-Fc mutant SD102 (E459A, S460A) (human, UniProt P08069 31-933)
T2 construct: not shown: human IgG1 Fc, C-terminal tag
Method: as §1

[3] = molecular target: T3, hIGF-1R-Fc mutant SD103 (D461A, V462T) (human, UniProt P08069 31-933)
T3 construct: not shown: human IgG1 Fc, C-terminal tag
Method: as §1

[4] = molecular target: T4, hIGF-1R-Fc mutant SD104 (H464A) (human, UniProt P08069 31-933)
T4 construct: not shown: human IgG1 Fc, C-terminal tag
Method: as §1

[5] = molecular target: T5, hIGF-1R-Fc mutant SD108 (H480E) (human, UniProt P08069 31-933)
T5 construct: not shown: human IgG1 Fc, C-terminal tag
Method: as §1

[6] = molecular target: T6, hIGF-1R-Fc mutant SD109 (Y482A, R483W) (human, UniProt P08069 31-933)
T6 construct: not shown: human IgG1 Fc, C-terminal tag
Method: as §1

[7] = molecular target: T7, hIGF-1R-Fc mutant SD110 (E533H) (human, UniProt P08069 31-933)
T7 construct: not shown: human IgG1 Fc, C-terminal tag
Method: as §1

[8] = molecular target: T8, hIGF-1R-Fc mutant SD113 (E570A, I571T) (human, UniProt P08069 31-933)
T8 construct: not shown: human IgG1 Fc, C-terminal tag
Method: as §1

Measured: binding result

T1 sequence (P08069 31-933 H494E): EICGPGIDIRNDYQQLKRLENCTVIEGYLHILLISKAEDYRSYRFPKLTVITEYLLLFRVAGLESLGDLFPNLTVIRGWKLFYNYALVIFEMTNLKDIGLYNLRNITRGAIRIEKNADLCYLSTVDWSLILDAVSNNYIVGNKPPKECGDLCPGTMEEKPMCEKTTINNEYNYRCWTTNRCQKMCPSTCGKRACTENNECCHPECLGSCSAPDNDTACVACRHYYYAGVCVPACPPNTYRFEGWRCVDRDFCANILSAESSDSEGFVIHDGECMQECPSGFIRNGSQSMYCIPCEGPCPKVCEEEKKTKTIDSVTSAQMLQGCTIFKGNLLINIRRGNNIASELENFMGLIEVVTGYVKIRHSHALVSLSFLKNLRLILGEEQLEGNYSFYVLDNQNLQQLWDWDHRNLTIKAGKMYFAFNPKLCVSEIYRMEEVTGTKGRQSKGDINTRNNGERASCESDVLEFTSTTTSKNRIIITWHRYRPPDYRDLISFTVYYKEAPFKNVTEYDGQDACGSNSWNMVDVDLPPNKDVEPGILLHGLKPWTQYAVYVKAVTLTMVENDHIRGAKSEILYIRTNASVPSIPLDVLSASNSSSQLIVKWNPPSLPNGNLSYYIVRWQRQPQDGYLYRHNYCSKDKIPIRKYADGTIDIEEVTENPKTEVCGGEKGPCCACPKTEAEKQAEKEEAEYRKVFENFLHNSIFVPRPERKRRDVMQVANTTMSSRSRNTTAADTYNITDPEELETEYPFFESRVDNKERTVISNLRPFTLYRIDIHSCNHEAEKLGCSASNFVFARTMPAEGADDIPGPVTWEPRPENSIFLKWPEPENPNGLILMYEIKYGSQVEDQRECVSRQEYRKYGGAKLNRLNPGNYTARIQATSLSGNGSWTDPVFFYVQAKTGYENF
T6 sequence (P08069 31-933 Y512A/R513W): as the sequence (P08069 31-933 H494E) above, with E464H, Y482A, R483W counted along it
T2 sequence (P08069 31-933 E489A/S490A): as the sequence (P08069 31-933 H494E) above, with E459A, S460A, E464H counted along it
T7 sequence (P08069 31-933 E563H): as the sequence (P08069 31-933 H494E) above, with E464H, E533H counted along it
T8 sequence (P08069 31-933 E600A/I601T): as the sequence (P08069 31-933 H494E) above, with E464H, E570A, I571T counted along it
T3 sequence (P08069 31-933 D491A/V492T): as the sequence (P08069 31-933 H494E) above, with D461A, V462T, E464H counted along it
T4 sequence (P08069 31-933 H494A): as the sequence (P08069 31-933 H494E) above, with E464A counted along it
T5 sequence (P08069 31-933 H510E): as the sequence (P08069 31-933 H494E) above, with E464H, H480E counted along it

B1: M14-C03 Fab (Fab, V domains shown)
VH: EVQLLESGGGLVQPGGSLRLSCAASGFTFSKYMMSWVRQAPGKGLEWVSYISPSGGLTWYADSVKGRFTISRDNSKNTLYLQMNSLRAEDTAVYYCARDGARGYGMDVWGQGTTVTVSS
VL: DIQMTQSPATLSLSPGERATLSCRASQSVSSYLAWYQQKPGQAPRLLIYDASNRATGIPARFSGSGSGTDFTLTISSLEPEDFAVYYCQQRSNWPPEVTFGPGTKVDIK
notes: Enzymatically derived Fab
no binding (tested: up to 30 nM Fab): all assays above

Source: patent US20090130105A1 (Biogen, published 2009)
